B1: Mad2-binding peptide 1 (MBP1) (peptide)
peptide: SWYSYPPPQRAV

Assays:
[1] = biological target: C-Mad2* (closed conformation of full-length human R133A Mad2) (human) (UniProt Q13257); experiment: 15N-CEST + 15N-CPMG relaxation dispersion NMR
[2] = biological target: L5I Mad2* (L5I R133A Mad2) (human, UniProt Q13257 1-205, L5I | R133A); experiment: NMR titration
[3] = biological target: C-Mad2* (closed conformation of full-length human R133A Mad2) (human, UniProt Q13257 1-205, R133A); experiment: NMR titration
Chain of C-Mad2* (closed conformation of full-length human R133A Mad2) (Q13257 whole entry R133A): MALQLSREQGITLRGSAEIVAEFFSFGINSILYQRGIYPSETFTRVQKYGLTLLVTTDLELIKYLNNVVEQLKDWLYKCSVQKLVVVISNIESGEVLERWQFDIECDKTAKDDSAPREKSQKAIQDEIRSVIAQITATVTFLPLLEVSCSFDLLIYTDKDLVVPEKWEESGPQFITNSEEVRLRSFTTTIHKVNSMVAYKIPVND

Chain of L5I Mad2* (L5I R133A Mad2) (Q13257 whole entry L5I/R133A): as the sequence (Q13257 whole entry R133A) above, with L5I counted along it

Row | Molecule | Kd [1] [mM] | koff [1] [s⁻¹] | kon [1] [M⁻¹ s⁻¹] | population of the excited state E1 (pE1) at 133 μM [1] [%] | binding result [2] | binding result [3]
1 | C-Mad2* (closed conformation of full-length human R133A Mad2) (from UniProt Q13257 1-205) (natural protein) | 3.4 | 152 | 44000 | 3.5 |  | 
2 | B1 |  |  |  |  | binds | binds

From paper PMC7616478 (Proteins, 2024)
